System: MBP-His8-MilO (Streptoverticillium rimofaciens (Streptomyces rimofaciens))
Test: fluorescence polarization
Details: EMSA: 20 mM Tris-HCl pH 8.0, 100 mM KCl, 2.5 mM MgCl2, 0.2 mM DTT, 10% glycerol, salmon sperm DNA, 30 C 10 min (Fig 5 legend: room temperature); FP: 20 mM Tris …

| Sequence | binding signal (fold decrease in affinity vs OBSWT) |
| --- | --- |
| TGTCGCCCGGTCGTATTATCTAACGGTGTCCGCCGGTGCCCCGG (double strand) [OBSM2] | 3 |
| TGTCGCCCGGTCGTGTCGCTCGGTGGCGCCTATCAACGCCCCGG (double strand) [OBSM3] | 3 |
| CACTATTTAATCGTGTCGCTCGGTGGTGTCCGCCGGTGCCCCGG (double strand) [OBSM1] | 3 |

Source: paper PMC11784345
